From patent publication US20210206842A1 (NATIONAL RESEARCH COUNCIL OF CANADA, published 2021)

Tests used:
[1] = target: T1, FC5DIE3IR recombinant protein; assay: SPR (Biacore T200), VHH flowed over immobilized FC5DIE3IR, steady state fit, 25 C
T1 construct: Made in CHO-3E7 cells; also called FC5DIE31R; FC5DIE3R
Excerpt: (§1) Surface Plasmon Resonance for VHH antibodies. […] Monomeric VHH fractions were collected and protein concentration determined by measuring A280 measurement. Using a Biacore T200 instrument (GE Healthcare), approximately 500-1000 RUs of FC5DIE3IR, FC5 and an irrelevant VHH (2A3-H4) were immobilized on a CM5 Series S sensor chip (GE Healthcare) at pH 4.0 using standard amine coupling according to the manufacturer's instructions (GE Healthcare). […] Surfaces were regenerated by washing with a 120 s pulse of 10 mM glycine pH 1.5. Data were analyzed with Biacore T200 Software v 3.0 and affinities determined using steady state binding or a 1:1 binding model.
(§2) Surface Plasmon Resonance (SPR).

VHH FC5 [2] = target: T2, VHH FC5; assay: phage ELISA of immune-library colonies, phage supernatant on coated FC5DIE3IR or FC5, anti-M13-HRP, TMB
T2 construct: put together from its FR and CDR entries; also called FC5-VHH; FC5 control
T2 sequence (VHH, as listed by the source): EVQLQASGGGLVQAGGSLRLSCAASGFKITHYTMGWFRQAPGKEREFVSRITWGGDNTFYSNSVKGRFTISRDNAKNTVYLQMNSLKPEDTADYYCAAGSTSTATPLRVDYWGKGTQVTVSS

[3] = target: T1, FC5DIE3IR recombinant protein; assay: phage ELISA, phage supernatant on coated FC5DIE3IR or PBS wells, anti-M13-HRP, TMB
Method: FIG. 25A Phages were rescued from individual colonies, selected from the fourth round of panning and grown overnight at 37° C. Wells of a Nunc microtiter plate were coated with FC5DIE3IR and FC5 proteins at 5 μg/ml in PBS. […] Binding was detected with TMB substrate and A450 was measured using an ELISA plate reader.
Additional rounds (up to 3) of panning were performed by coating the ELISA plate with the same proteins and using the amplified phages after each round of panning as described above. After four rounds of panning, 77 randomly picked colonies were grown and subjected to monoclonal phage ELISA screening as described previously (Arbabi-Ghahroudi et al., 2009) except that 5 μg/ml of FC5DIE3IR and FC5 VHH (the negative control) were coated onto a microtiter plate. All positive clones specifically binding to FC5DIE3IR were sequenced and unique VHH sequences were selected for sub-cloning, large-scale expression, and purification.

human Nav1.7 polypeptide = human Nav1.7 polypeptide (human, UniProt Q15858 1-1988); assay: cell-based or functional assay
peptide #2b (20 aa) = target: T3, peptide #2b (20 aa) (human); assay: ELISA on coated P2b, mAb at the dilutions 1:1000, 1:5000 and 1:10000, Abs 450nm
T3 construct: Custom-synthesized (Biomatik); also called pep #2b; P2b
T3 peptide: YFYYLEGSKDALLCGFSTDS
Method: (§3) The peptides were custom-synthesized (Biomatik) and tested for antibody binding by ELISA. […] The wells were blocked with 1% BSA in TBS-T for 30 min and then incubated with 1:1000 dilution of anti-hNaᵥ1.7 mAb at room temperature (RT) for one hr.

peptide #3 (30 aa) = target: T4, peptide #3 (30 aa) (human); assay: ELISA on coated peptide or FC5DIE3IR, mAb detected with HRP anti-mouse Fc, Abs 450nm
T4 construct: Custom-synthesized (Biomatik); also called pep #3; P3
T4 sequence (peptide, as listed by the source): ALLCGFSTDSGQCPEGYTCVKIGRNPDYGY
Method: as §3

peptide #40a (40 aa) = target: T5, peptide #40a (40 aa) (human); assay: as above
T5 construct: Custom-synthesized (Biomatik); also called pep #40a; P40a
T5 peptide: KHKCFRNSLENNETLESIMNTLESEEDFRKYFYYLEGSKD
Method: as §3

peptide #2 (30 aa) = target: T6, peptide #2 (30 aa) (human); assay: as above
T6 construct: Custom-synthesized (Biomatik); also called pep #2; P2
T6 peptide: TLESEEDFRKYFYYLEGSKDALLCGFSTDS
Method: as §3

VHH FC5 [4] = target: T2, VHH FC5; assay: SPR, single cycle kinetics, Fc-captured mAb, FC5 flowed, 25 C
Method: HBS-EP running buffer used for SPR experiments. […] Test binding experiments of FC5 control and FC5DIE3IR involved flowing 1 μM concentrations of SEC-pure material over the mAb surface at a flow rate of 30 μl/min for 5 min. Surfaces could be regenerated using 10 mM glycine, pH 1.7, with a 120 sec pulse at 20 μl/min. All SPR experiments were evaluated with Biacore T200 Software v 3.0. […] Regeneration conditions were the same as above. Data were fit to a 1:1 binding model and analyzed using the Biacore T200 Software v3.0.

peptide #2a (20 aa) = target: T7, peptide #2a (20 aa) (human); assay: ELISA on coated P2a, mAb at the dilutions 1:1000, 1:5000 and 1:10000, Abs 450nm
T7 construct: Custom-synthesized (Biomatik); also called pep #2a; P2a
T7 peptide: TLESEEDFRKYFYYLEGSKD
Method: as §3

[5] = target: T1, FC5DIE3IR recombinant protein; assay: ELISA on coated FC5DIE3IR, serial dilutions of purified mAb; fit One site - Specific binding with Hill slope
Method: (§4) Screening. Hybridoma supernatants were screened by ELISA to detect specific binders. To this end, 96-well half-area plates (Costar #3690) were coated with 25 μl of FC5DIE3IR or FC5-VHH or FC5-hFc-1X0 at 5 μg/ml in PBS and incubated overnight at 4° C. Microplates were washed 3 times with PBS, blocked with PBS-BSA 1%, and 25 μl of hybridoma supernatants were added and incubated at 37° C., 5% CO₂ for 2 hours. […] After 4 washes with PBS-Tween 20 0.05%, 25 μl of a 1 mg/ml pNPP substrate solution was added and further incubated for one hour at 37° C.
(§5) Evaluation of apparent affinity in ELISA. Purified antibodies were assessed for their binding activity by ELISA in a dose-dependent binding curve. Serial 1/3 dilutions of purified mAbs starting at 120 nM were applied onto wells and ELISA was performed as described above (screening section). The data were analyzed with GraphPad Prism software using one-site specific binding-with Hill slope non-linear regression curve fit model to determine Bₘₐₓ (maximum specific binding) and Kdₐₚₚ (concentration needed to achieve a half-maximum binding at equilibrium) for each mAb tested.

[6] = target: T1, FC5DIE3IR recombinant protein; assay: ELISA on coated FC5DIE3IR, serial dilutions of purified mAb, OD 405 nm; fit One site - Specific binding with Hill slope; apparent Kd in the unit of the concentration axis (nM), the table itself prints no unit
Method: as §4, §5

VHH FC5 [7] = target: T2, VHH FC5; assay: ELISA, hybridoma supernatant on coated purified FC5-VHH
Method: as §4

VHH FC5 [8] = target: T2, VHH FC5; assay: phage ELISA of immune-library colonies, phage supernatant on coated FC5DIE3IR or FC5, anti-M13-HRP, TMB; remark: listed apart in the source
[9] = target: T1, FC5DIE3IR recombinant protein; assay: SPR (Biacore T200), single cycle kinetics, VHH flowed over immobilized FC5DIE3IR, 25 C
Excerpt: as §1, §2

B1: VHH DI-4 (VHH)
VHH: QVQLVESGGGLVQPGGSLRLSCAASGFTFSNYWMYWVRQAPGKGLERVSSIYISGGNTYYADSVKGRFTISRDNAKNTLYLQMNSLKSEDTAVYYCVKGDTFGGMDYWGKGTQVTVSS
notes: From the FC5DIE3IR llama immune library; soluble tagged monomer in SPR; not shown: cmyc and His6 tags at the C-terminus
B1 was tested, and the Kd [1] was 2250 nM and the binding result (VHH FC5 [2]) was “no binding”.

B2: VHH DI-H (VHH)
VHH: QVKLEESGGGLVQAGESLRLSCVNSGSTFSIYAMGWYRQAPGKQRELVAAISSVGRTNYADSVKGRFTISRAGAKNTVYLHMNNLKPEDTAVYSCITYYQNAMYFGQGTQVTVSS
notes: From the naive LAC-M library; soluble tagged monomer in protein ELISA and patch clamp; also called clone H; not shown: 6xHis and c-Myc tags on the soluble monomer
With B2 the binding result [3] was “binds” and the “reduction of the amplitude of the Nav1.7 currents at 1 µM” value (shortened to “reduction”) (human Nav1.7 polypeptide) was 1.72%.

B3: VHH DI-C (VHH)
VHH: QVKLEESGGGLVQPGESLRLSCVGSGFNFRIQAMAWFRQAPGKEREFVASISGSGATTDHADSVKGRFAISKDNARDTMYLQMNNLKPEDTAVYYCYAISQHVPPYHYWGQGTQVTVSS
notes: From the naive LAC-M library; soluble tagged monomer in protein ELISA and patch clamp; also called clone C; not shown: 6xHis and c-Myc tags on the soluble monomer
B3 was tested, and the binding result [3] was “binds” and the “reduction” value (human Nav1.7 polypeptide) was 0.46%.

B4: anti-hNav1.7 mAb 1B6 (antibody, V domains shown)
VH: QVQLKESGPGLVAPSQSLSITCTVSGFSLSRYNVHWVRQPPGKGLEWLGMIWGGGSTDYNSALKSRLSISKDNSKSQVFLKMNSLQTDDTAMYYCARNGANWDWFAYWGQGTLVTVSA
VL: not shown
notes: also called IB6; F236-1B6
B4: no binding (tested: 1:1000 dilution) (peptide #2b (20 aa)); no binding (peptide #3 (30 aa)); binds (peptide #40a (40 aa)). B4: binds (peptide #2 (30 aa)); no binding (VHH FC5 [4]); no binding (tested: 1:1000 dilution) (peptide #2a (20 aa)). The Bmax [5] was 1.07 OD405 nm, the Kd [6] was 1.33 nM and the “ELISA signal (OD 405 nm)” value (VHH FC5 [7]) was 0.028 OD 405 nm.

B5: anti-hNav1.7 mAb 1H5 (antibody, V domains shown)
VH: EVKLVESGGGLVKPGGSLKLSCAASGFTFRSYAMSWVRQTPEKGLEWVASISSGGSTYYPDSVKGRFTISRDNAGNILYLQMSSLRSEDTAMYYCARGYDGYYERIWYYAMDYWGQGTSVTVSS
VL: DIVMTQSQKFMSTSVGDRVTVSCKASQNVGTIVAWYQQKPGQSPKALIYSASYRFSGVPDRFTGSGSGTDFTLTISNVQSEDLAEYFCQQYNTYPLTFGSGTKLEIK
B5: binds (peptide #3 (30 aa)); binds (peptide #40a (40 aa)); no binding (VHH FC5 [4]). The Bmax [5] was 0.583 OD405 nm, the Kd [6] was 1.6 nM and the “ELISA signal (OD 405 nm)” value (VHH FC5 [7]) was 0.042 OD 405 nm.

B6: VHH DI-B (VHH)
VHH: QVKLEESGGGLVPPGESLRLTCAATGQTASVYEMAWFRRAPEKEQVYVASINWRDGDTQYHNSVKGRFIISRDNAKNTVFLQMNSLTPEDTAIYYCAARKELAGYDYWGQGTQVTVSS
notes: From the naive LAC-M library; soluble tagged monomer in protein ELISA and patch clamp; also called clone B; not shown: 6xHis and c-Myc tags on the soluble monomer
With B6 the binding result [3] was “binds” and the “reduction” value (human Nav1.7 polypeptide) was 1.73%.

B7: VHH DI-E (VHH)
VHH: QVKLEESGGGLVQPGGSLRLSCAASEFTFSSSWGHWVRQAPGKGLKWVSSINSGGEGTYYADSVKGRFTISRDNGKNTLYLEMNSLKSEDTAVYYCTSASGAWGQGIQVTVSS
notes: From the naive LAC-M library; also called clone E; not shown: 6xHis and c-Myc tags on the soluble monomer
B7: binds [3].

B8: VHH DI-28 (VHH)
VHH: QVQLVESGGGLVQAGGSLRLSCAASGRTFSSSGMGWFRQAPGKDRELVAGISWSGDSAYYANSVAGRFTISRDNINNTVYLQMNSLKPEDTAVYYCAARQGGRNYATSPREYDYWGQGTQVTVSS
notes: as for B1
In the case of B8, the binding result (VHH FC5 [8]) is reported as “no binding”, the Kd [9] is reported as 4.44 nM and the koff [9] is reported as 0.00205 s⁻¹. It also gave a kon [9] of 461000 M⁻¹ s⁻¹.

B9: VHH DI-A (VHH)
VHH: QVQLVESGGGLVQPGGSLRLSCAASGRTISSFTMGWFRQAPGAEREFVAAISRSGSSTVYAGSVKGRFTISRDNAKNTVYLQMNSLKPEDTAVYYCNAVITEPLYKTDDSYWGQGTQVTVSS
notes: From the naive LAC-M library; soluble tagged monomer in protein ELISA and patch clamp; also called clone A; not shown: 6xHis and c-Myc tags on the soluble monomer
For B9, the binding result [3] was “binds” and the “reduction” value (human Nav1.7 polypeptide) was 2.73%.
